From the nanobody polyreactivity screen of Harvey et al. (2022)

Experiment: yeast display, Sf9 membrane polyspecificity reagent, FACS + sequencing; frameworks hold sequencing errors
Outline: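 Nanobodies came from a synthetic yeast display library in Saccharomyces cerevisiae BJ5465, induced with galactose for 36–48 hours and stained for 1 hour at 4 °C with 10% biotinylated, detergent-solubilized Sf9 membrane reagent. Cells were enriched on streptavidin microbeads and then FACS-sorted, with low and high (top ~1%) gates set on anti-HA fluorescence for expression and streptavidin fluorescence for reagent binding. Each polyreactivity label reflects the gate a clone came from. Genes were amplified by colony PCR, sequenced by MiSeq 2 × 250 and filtered by CDR length.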

Q: With “QVQLVESGGGLVHAGGSLRLSCAASGSIFVWNAMGWYRQAPGKERELVARIRYSSNTYYADSVKGRFTISRDNAKNNVYLQMTSLKPEDTAVYYCAAGSTRYAGWTYNYWGQGTHVTVSS” as the sequence, how does the “polyreactivity (PSR sort gate)” value read?
A: Its value is “high polyreactivity”.

Q: Which “polyreactivity (PSR sort gate)” value does the source give for “QVQLVESGGGLVHAGGSLRLSCAASGSIYYAYAMGGYRQAPGKERELVATITWNGDSTYYADSVKGRFTISLDNAKNTVYLQMNSLKPEDTAVYYCAARYRWPIPGTQYEYWGQGTQVTVSS” here?
A: Its value is “low polyreactivity”.

Q: With “QVQLVESGGGLVHAGGSLRLSCAASGSNFNINAMGWYRQAPGKERELVAAITTSGGRTYYSDSVKGRFTISRDNAKNTVYLQMNSLKPEDTAVYYCNARHLPGSRSWRWITYDYWGQGTQVTVSS” as the sequence, how does the “polyreactivity (PSR sort gate)” value read?
A: The value was “low polyreactivity”.

Q: For “QVQLVESGGGLVHAGGSLRLSCAASGSTFGRYTMGWYRQAPGKERELVAAISYSSGRTYYADSVKGRFTISRDNGKNTVYLQMNSLKAEDSAVYYCAAVSRGRGEYDYWGQGTQVTVSS”, which “polyreactivity (PSR sort gate)” value is on record?
A: Its value is “high polyreactivity”.

Q: With “QVQLVESGGGLVHAGGSLRLSCAASGSTFLPNVMGWYRQAPGTERELVAANSSRGGRTYYADSVKGRFTISRDNAKNTVYLQMNSLKPEDTAVYYCAAYTRDTTGSAGIYRDDYWGQGTQVTVSS” as the sequence, how does the “polyreactivity (PSR sort gate)” value read?
A: Its value is “high polyreactivity”.

Q: Which “polyreactivity (PSR sort gate)” value does the source give for “QVQLVESGGGLVHAGGSLRLSCAASGSTFSRNVMVWYRQAPGKEWELVAAISRGGSTNYADSVKGRFTISRENAKNTVYLQMKSLKPEDTAVYYCNAPRLGKFYNWGQGTQVTVSS” here?
A: The value was “low polyreactivity”.

Q: Which “polyreactivity (PSR sort gate)” value does the source give for “QVQLVESGGGLVHAGGSLRLSCAASGSTFWYNAMGWYRQAPGKERELVAAITWSGSRTYYSDSVKGRFTISRDNAKNTVYLQMNSLKPEDTAVYYCNRTRSFTRYDVFYGTIPAFDYWGQGTQVTVSS” here?
A: Its value is “high polyreactivity”.

Q: With “QVQLVESGGGLVHAGGSLRLSCAASGSTFYQNGMGWYRQAHGQERELVAALTGDGGSTYYADSVKGRFTISRDNAKNTVSLHMNSLKPEDTAVYYCAADWTVITDSQFNSGYDYWGQGTQVTVSS” as the sequence, how does the “polyreactivity (PSR sort gate)” value read?
A: Its value is “low polyreactivity”.

Q: Which “polyreactivity (PSR sort gate)” value does the source give for “QVQLVESGGGLVHAGGSLRLSCAASGSTLRGYVMGWYRQAPGKERELVAAITQRAGSTYYADSVKGRFTISRDNAKNPVYLQMNSLKAEDTAVYYCNVDRHYAVESGYWGQGTQVTVSS” here?
A: The value was “high polyreactivity”.

Q: With “QVQLVESGGGLVHAGGSLRLSCAASVSIFASNAMGWYRQAPGKERELVAAITSSGRTKYADSVKGRFTISRDNAKNTVYLQMNSLNPEDTAVYYCAAVYYTYFGRYDYWGQGTQVTVSS” as the sequence, how does the “polyreactivity (PSR sort gate)” value read?
A: Its value is “high polyreactivity”.

Q: With “QVQLVESGGGLVHAGGSLRLSCAAYGRTFYTYAMGWYSQAPGKVRELVAAISSSGSTYYADSVKGRFTISRDNAKYTVYLQMNSLKPEDTAVYYCNARTSRYRRGGDSWGQGTQVTVSS” as the sequence, how does the “polyreactivity (PSR sort gate)” value read?
A: Its value is “high polyreactivity”.

Q: With “QVQLVESGGGLVHAGGSLRLSCADSGSIFGWYVMGWYRQAPGKVREFVAAISSVGSTYYADSVKGRFTISRDNAKNTVSLQMNSLKPEDTAVYYCAKLRYPYLFWDDSEYWGQGTQVTVSS” as the sequence, how does the “polyreactivity (PSR sort gate)” value read?
A: Its value is “low polyreactivity”.

Q: With “QVQLVESGGGLVHAGGSLRLSCAGSGSTFRPYAMGWYRQAPGKERELVAAIRKIGGRTYYADSVKGRFTISRDNAKNTVYLQMNSLKPEDTAVYNCNKRIGGGVHAYNYWGQGTQVSVSS” as the sequence, how does the “polyreactivity (PSR sort gate)” value read?
A: Its value is “low polyreactivity”.

Q: With “QVQLVESGGGLVHAGGSLRLSCPASGRIFPHYAMGWYRQAPGKEREMVAAISGRGGNTYYADSVKGRFTISRDNAKNTVYLQMNSLKPEDTAVYYCAADVSWRPSWGYDYWGQGTQVTVSS” as the sequence, how does the “polyreactivity (PSR sort gate)” value read?
A: The value was “high polyreactivity”.

Q: With “QVQLVESGGGLVHAGGSLRLSFAASGRTFVNNAMGWYRQAPGKERELVAAITGSCGSTYYADSVKGRFTISRDNAKNTFYLQMNSLKPEYTAVYYCAKRHVGSRYLFDYWGQGTQVTVSS” as the sequence, how does the “polyreactivity (PSR sort gate)” value read?
A: The value was “low polyreactivity”.

Q: With “QVQLVESGGGLVHAGGSLRLSSAASGRISLSNAMRWYTQAPGKETEFVAAITKRSDRTYYADSVKGRFTNSRDNAKNPVYLQMNSLKPEETAVYYCGAKPLFGTRDDYWGQGTQVTVSS” as the sequence, how does the “polyreactivity (PSR sort gate)” value read?
A: The value was “low polyreactivity”.

Q: With “QVQLVESGGGLVHAGGSLRLSSSASGSTFPVYAMGWYRQAPGKQRELVAAITSGVSTNYADSVKWRFTISRENAKNTVYLQMNSLKPEDTAVYYCAKDFGLLPIRDDYWGQGTQVTVSS” as the sequence, how does the “polyreactivity (PSR sort gate)” value read?
A: The value was “low polyreactivity”.

Q: For “QVQLVESGGGLVHAGGSLSLSCAASGPIFGSYGMGWYRQAPGKERELVAAISYSGGRTFYADSVKGRFTISRDNAKNNVYLQMNSLKPEDTAVYYCNKRYIPSYMSHLDYWGQGTQVTVSS”, which “polyreactivity (PSR sort gate)” value is on record?
A: The value was “high polyreactivity”.

Q: With “QVQLVESGGGLVHAGGSLSLSCAASGSIFGYYAKGWYRQAPGKERELVAAITVSGGSTYYADSVKGRFTISRDNAKNTDYLQLISLKPEDTAVYYCAADDIYGEYYYWGQGTQVTVSS” as the sequence, how does the “polyreactivity (PSR sort gate)” value read?
A: The value was “high polyreactivity”.

Q: For “QVQLVESGGGLVHAGGTLRLTCAASGFIFKRYTLGWYRQAPGQERELFATINRNGGNTYYADSVKGRFTISRDNAKNTVYLQMNILKPEDTSVYYCNARYWRAQGWPGYDYWGQGTQVTVSS”, which “polyreactivity (PSR sort gate)” value is on record?
A: Its value is “high polyreactivity”.

Q: For “QVQLVESGGGLVHAGSSLRLSCAASGSTYPYNAMGWYRQAPGKERELVAAIDYSGGSTYAVSVKGRFTISRDNAKNTVYLQMNSLTPEDTAVYYCAYCRVVVYDVSGDDEDYDYWGQGSQVTVSS”, which “polyreactivity (PSR sort gate)” value is on record?
A: The value was “low polyreactivity”.

Q: For “QVQLVESGGGLVHAVGSHRLSCTASGSTFVAYPMGWYRQAPGKERELVAAITSSGGRTYYADSVKGRFTISRDNSKNTVYLQINSLKPEDTAVYYCAAVTHGRYDWGQGTQVTVSS”, which “polyreactivity (PSR sort gate)” value is on record?
A: Its value is “high polyreactivity”.

Q: For “QVQLVESGGGLVHAVGSLRLSCAASGFIFHEYAMGCYIQAPGKERELVAAISSGGGSTYYADSVKGRFTISRDNAKNTVYLQMNSLKPEDTAVYYCAADATAYSVLTRDYWGQGTQVTVSS”, which “polyreactivity (PSR sort gate)” value is on record?
A: The value was “high polyreactivity”.

Q: With “QVQLVESGGGLVKAGGPLRLSCAASGSIFYYNPMGWYRQAPGTERELVAAITSGDSTNYADSVKGRFTISRDNAKNSVYLQLNSLKPEDTAVYYCAADYLAALTYYRTYDYWGEGTQVTVSS” as the sequence, how does the “polyreactivity (PSR sort gate)” value read?
A: The value was “low polyreactivity”.

Q: For “QVQLVESGGGLVKAGGSLRISCAASGFTFVSYSKGWYRQAPGKERELVADISSGVSTNYADSVKGRFTISRDNAKNTVYLQMNSLNPEDTAVYYCAAYGTKWGRGFYITGYGYWGQGTQVTVSS”, which “polyreactivity (PSR sort gate)” value is on record?
A: Its value is “low polyreactivity”.

Q: For “QVQLVESGGGLVKAGGSLRLSCAASGFIFVPYAMGWYRQAPGKERELVAAITWSSGGNTYYADSVKGRFTISRDNAKNTVYLQMNSLKPEDTAVYYCAAEWYEAGYWYDYWGQGTQVTVSS”, which “polyreactivity (PSR sort gate)” value is on record?
A: The value was “high polyreactivity”.

Q: Which “polyreactivity (PSR sort gate)” value does the source give for “QVQLVESGGGLVKAGGSLRLSCAASGFTFTIYAMGWYRQAPGKERELVAAITNSGDTNYADSVKGRFTISRDNAKNTVYLQMNSLKPEDTAVYYCAKAYYIGYFFNFGSWGQGTQVTVSS” here?
A: The value was “low polyreactivity”.

Q: For “QVQLVESGGGLVKAGGSLRLSCAASGGTFNRNAMGWYRQAPAKERELVAAICSSGGRTYYADSVKGRFTISRDNAKNTVYLQMNSLKPEDTAGYYCAAGRKGHGGAYDSWGQGTQVTVSS”, which “polyreactivity (PSR sort gate)” value is on record?
A: The value was “high polyreactivity”.

Q: Which “polyreactivity (PSR sort gate)” value does the source give for “QVQLVESGGGLVKAGGSLRLSCAASGITFWRYTMGWYRQAPGIERELVAAITSRGGNTYYADSVKGRFTISRDNAKNTVYLQLNSLKPEDTAVNYCNADRYNKYWYDYWGQGTQVTVSS” here?
A: The value was “high polyreactivity”.

Q: Which “polyreactivity (PSR sort gate)” value does the source give for “QVQLVESGGGLVKAGGSLRLSCAASGLNFNRYTMGWNRQAPGKERELVAVIDCSGGSTRYADSVKGRFTISRDNAKNTVDLQMNSLKPEDTAVYYCDYYWAQGTQVTVSS” here?
A: Its value is “low polyreactivity”.

Q: With “QVQLVESGGGLVKAGGSLRLSCAASGRICSSYAMGWYRQAPGKERELVAAISRGGGRTYYADSVKGRFTNSRDNAKNTVYLQMNSLKPEDTAGYYCAAGRRYASEMDYWGLGTQVTVSS” as the sequence, how does the “polyreactivity (PSR sort gate)” value read?
A: Its value is “high polyreactivity”.

Q: With “QVQLVESGGGLVKAGGSLRLSCAASGRIFDYNAMGWYRQAPGKERELVAAISYSGGGTYYADSVKGRFTISRDYAKNSVYFQMNSLKPEDTAVYYCAKPYYQYYYISYDYWGQGTQVTVSS” as the sequence, how does the “polyreactivity (PSR sort gate)” value read?
A: Its value is “low polyreactivity”.

Q: For “QVQLVESGGGLVKAGGSLRLSCAASGRIFYYNTMGWYRQAPGKERELVAAITTNGGSTYYADSVKGRFTISRDNAKNTVYLQMNSLKPEDTAVYYCNRDRYPYYYAYNYWGQGTQVTVSS”, which “polyreactivity (PSR sort gate)” value is on record?
A: Its value is “low polyreactivity”.

Q: For “QVQLVESGGGLVKAGGSLRLSCAASGRTFWIYAMGWYRPAPGKERELRAAISQSSSNTYYADSVKGRVTLSRDNAKNTVYLQMNSLKPEDTAVYYCNAVVLRYQGSWLEYWGQGTQVTVSS”, which “polyreactivity (PSR sort gate)” value is on record?
A: The value was “low polyreactivity”.

Q: For “QVQLVESGGGLVKAGGSLRLSCAASGSIFKSNAMGWYRQAPGKEWELVAAISDSGGSTYYADSVKGRFTISRDNAKNTVYLQMNSLKPEDTAVYYCNADWSWYNYYDFDYWGQGTQVTVSS”, which “polyreactivity (PSR sort gate)” value is on record?
A: Its value is “low polyreactivity”.

Q: For “QVQLVESGGGLVKAGGSLRLSCAASGSIFLTYAMGWNRQAPGKERELVAAITQSGGSTYYADSVKGRFTISRDNAKNTVYLQMNSLKPEDTAVYYCAADVFGPQYWWYDYWGQGTQVTVSS”, which “polyreactivity (PSR sort gate)” value is on record?
A: Its value is “low polyreactivity”.

Q: Which “polyreactivity (PSR sort gate)” value does the source give for “QVQLVESGGGLVKAGGSLRLSCAASGSIFYFNAMGWYRQAPGKERELVATIRSGDGRTYYADSVKGRFTISRDNAQNTVYLQMNSLKPEDTAVYYCNASRVVYRQAYVYGYDYWGKGTQVTVSS” here?
A: Its value is “low polyreactivity”.

Q: For “QVQLVESGGGLVKAGGSLRLSCAASGSTFDYYAMGWYRQAPGKERELVAAISGSGGSTYYADSVKGRFTISRDIAKNTVYLQMNSLKPEDTAVYYCATVRSRLFGQYYYWGQGTQVTVSS”, which “polyreactivity (PSR sort gate)” value is on record?
A: The value was “high polyreactivity”.

Q: With “QVQLVESGGGLVKAGGSLRLSCAASGSTFERYAMGWYRQAPGKERELVAAINWSGGGTYYADSVKGRFTISRDNAKNTVYFQMNSLKPEDTAVYYCAADSGTVVFSLWWYEYYYWGQGTQVTVSS” as the sequence, how does the “polyreactivity (PSR sort gate)” value read?
A: The value was “low polyreactivity”.

Q: Which “polyreactivity (PSR sort gate)” value does the source give for “QVQLVESGGGLVKAGGSLRLSCAASGSTFLWTTMGWYRPAPGKERELVAAISRSGGSTYYADSVKGRFTISRDNAKNTVYLQMISLKPEDTAVYYCAARTAGPWSWYHYWGQGTQVTVSS” here?
A: The value was “high polyreactivity”.

Q: Which “polyreactivity (PSR sort gate)” value does the source give for “QVQLVESGGGLVKAGGSLRLSCAASGSTFWYNAMGCYRQAPRKERELVAAITRGASTNYADSVKGRFTISRDNAKNTVYLQMNCLKPEDTAVYYCAGGPARWKGYYWGQGTQVTVSS” here?
A: Its value is “high polyreactivity”.
